{
  "source": "patent US20230390418A1",
  "about": "“[…] XII ANTIBODIES AND ADMINISTRATION THEREOF” (REGENXBIO INC., priority 2020, published 2023)",
  "molecules": {"B1": {"name": "lanadelumab: human anti-pKal (anti-kallikrein) IgG antibody; purified (GenScript) or produced in serum via AAV-mediated gene delivery (antibody)", "heavy": "EVQLLESGGGLVQPGGSLRLSCAASGFTFSHYIMMWVRQAPGKGLEWVSGIYSSGGITVYADSVKGRFTISRDNSKNTLYLQMNSLRAEDTAVYYCAYRRIGVPRRDEFDIWGQGTMVTVSSASTKGPSVFPLAPSSKSTSGGTAALGCLVKDYFPEPVTVSWNSGALTSGVHTFPAVLQSSGLYSLSSVVTVPSSSLGTQTYICNVNHKPSNTKVDKRVEPKSCDKTHTCPPCPAPELLGGPSVFL", "light": "DIQMTQSPSTLSASVGDRVTITCRASQSISSWLAWYQQKPGKAPKLLIYKASTLESGVPSRFSGSGSGTEFTLTISSLQPDDFATYYCQQYNTYWTFGQGTKVEIKRTVAAPSVFIFPPSDEQLKSGTASVVCLLNNFYPREAKVQWKVDNALQSGNSQESVTEQDSKDSTYSLSSTLTLSKADYEKHKVYACEVTHQGLSSPVTKSFNRGEC", "modifications": "Lanadelumab Heavy; misc (227)..(230) amino acids 227 to 230 are present or absent; misc (231)..(236) amino acids 231 to 236 are present or absent; misc (237)..(247) amino acids 237 to 247 are present or absent; Lanadelumab Light", "notes": "human anti-pKal (anti-kallikrein) IgG antibody; purified (GenScript) or produced in serum via AAV-mediated gene delivery"}},
  "key": {"[1]": {"target": "activated human plasma kallikrein (Enzyme Research Laboratories) (human) (UniProt P03952)", "assay": "cell-based or functional assay"}, "[2]": {"test_system": "carrageenan-induced paw edema", "assay": "Carrageenan paw edema model in mice (paw volume, plethysmometer)", "type": "in vivo", "details": "C57BL/6 mice, vectors 21 days, Diclofenac 30 minutes prior to carrageenan", "description": "Inflammation models induced by carrageenan are frequently used acute inflammation models. Carrageenan (Cg) is a strong chemical agent that functions in stimulating the release of inflammatory and proinflammatory mediators, including bradykinin, histamine, tachykinins, reactive oxygen, and nitrogen species. Typical signs of inflammation include edema, hyperalgesia, and erythema, which develop immediately following the treatment of carrageenan. This example evaluated the effect of AAV-mediated gene delivery of Lanadelumab on carrageenan-induced paw edema in mice.\nIn total eighty young adult (8-9 weeks old) male C57BL/6 mice were used for this study. Paw edema was induced by a single subcutaneous (s.c.) injection of 30 μL of 0.7% or 1% carrageenan solution. Test vectors and positive control Diclofenac were administered at 21 days and 30 minutes prior to carrageenan treatment. Blood was collected before vectors injection and at 7 and 21 days post injection from mice in groups 1, 3, 4, 5, 7 and 8. Paw volume was measured using a digital Plethysmometer prior to carrageenan injection, and at 2, 4, 6, 8, 24 and 48 hours after injection. All animals were sacrificed 48 hours after carrageenan injection. Liver and paw specimens were also collected at the necropsy."}, "[3]": {"target": "T1, activated human plasma kallikrein (Homo sapiens, UniProt P03952)", "T1 construct": "purchased Enzyme Research Laboratories", "T1 sequence (P03952 391-638 limits assumed)": "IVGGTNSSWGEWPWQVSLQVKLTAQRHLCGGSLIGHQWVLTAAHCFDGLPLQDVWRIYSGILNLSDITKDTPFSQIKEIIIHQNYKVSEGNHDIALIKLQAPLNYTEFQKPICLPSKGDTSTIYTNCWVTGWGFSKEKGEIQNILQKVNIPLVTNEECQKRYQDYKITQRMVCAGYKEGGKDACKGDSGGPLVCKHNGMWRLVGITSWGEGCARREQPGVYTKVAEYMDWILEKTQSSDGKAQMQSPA", "T1 sequence (P03952 20-390 limits assumed)": "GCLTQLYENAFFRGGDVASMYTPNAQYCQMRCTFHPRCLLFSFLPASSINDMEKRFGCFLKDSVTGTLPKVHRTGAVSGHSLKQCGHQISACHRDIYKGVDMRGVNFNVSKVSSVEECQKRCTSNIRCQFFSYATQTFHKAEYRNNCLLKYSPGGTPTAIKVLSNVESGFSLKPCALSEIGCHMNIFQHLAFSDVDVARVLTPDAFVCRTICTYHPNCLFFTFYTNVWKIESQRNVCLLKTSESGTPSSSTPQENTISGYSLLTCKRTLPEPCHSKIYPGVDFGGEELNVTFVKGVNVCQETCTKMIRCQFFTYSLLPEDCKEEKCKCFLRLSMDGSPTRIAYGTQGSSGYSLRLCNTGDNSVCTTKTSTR", "assay": "In vitro pKal functional assay (fluorogenic PFR-AMC substrate)", "type": "biochemical", "experimental": "In order to measure pKal function of lanadelumab derived from mouse serum following AAV-lanadelumab administration, a fluorescence-based kinetic enzymatic functional assay was performed. First, activated human plasma kallikrein (Enzyme Research Laboratories) was diluted in sample dilution buffer (SDB; 1×PBS, 3% BSA, 0.1% Tween-20) to top concentration of 100 nM. This pKal was two-fold serially diluted for a total of 12 concentrations in the dilution series (100 nM-0.05 nM). From each dilution, and in duplicate, […], was placed in one well of a 96-well, opaque flat-bottomed plate along with […], of SDB. […] The samples were immediately run in kinetic mode for AMC fluorescence at excitation/emission wavelengths of 380/460 nm, respectively, for 3 hours using a SpectraMax 3 fluorescent plate reader.\nThe signal-to-noise ratio for each pKal concentration RFU (last RFU fluorescent value chosen) was calculated by dividing its RFU by background PFR-AMC substrate fluorescence. […] Antibody-pKal mixture was then given PFR-AMC and immediately run in kinetic mode for AMC fluorescence at excitation/emission wavelengths of 380/460 nm, respectively, for 3 hours using a SpectraMax fluorescent plate reader.\nIn vitro pKal functional assay. […] Total antibody concentration was measured using a Nanodrop spectrophotometer, with OD absorbance=280 nm. […]"}},
  "data": [
    {"molecule": "Vectorized lanadelumab derived from mouse serum following AAV-lanadelumab administration (antibody)", "values": [
      {"measurement": "percent reduction in pKal activity (serum diluted 1:25, day 49 post-administration against day -7; PFR-AMC assay)", "setting": "[1]", "result": 50, "unit": "%"}
    ]},
    {"molecule": "Lanadelumab (GenScript) (antibody)", "values": [
      {"measurement": "suppression of pKal activity (PFR-AMC fluorogenic substrate, kinetic AMC fluorescence)", "setting": "[1]", "result": 0.1, "unit": "nM"}
    ]},
    {"molecule": "O=C(O)Cc1ccccc1Nc1c(Cl)cccc1Cl", "note": "[diclofenac, Diclofenac]", "values": [
      {"measurement": "Paw volume versus vehicle control", "setting": "[2]; 0.7% carrageenan model", "result": "a significant decrease on paw volume was observed only at 4 and 24 hours post injection"},
      {"measurement": "Paw volume versus vehicle control", "setting": "[2]; 1.0% carrageenan model", "result": "significantly decreased the paw volume at 2, 4, 6, 8 and 24 hours post carrageenan injection"}
    ]},
    {"molecule": "B1", "values": [
      {"measurement": "Paw volume versus vehicle control", "setting": "[2]; 1.0% carrageenan model", "result": "significantly reduces the severity of inflammation"},
      {"measurement": "Suppression of human pKal function by purified total IgG from mouse serum", "setting": "[3]; IgG purified from day 49 post-administration serum versus day −7", "result": "suppressed human pKal function"},
      {"measurement": "Lowest in-well concentration with noticeable suppression of pKal activity", "setting": "[3]; purified antibody, defined enzyme concentration", "result": 0.1, "unit": "nM"}
    ]}
  ]
}
